Test results as given in patent US20260092093A1 (TJ BIOPHARMA SHANGHAI, published 2026).
Substitutions are numbered along the chain they refer to.

T1: hIL-18Rα ECD-Fc fusion protein (human, UniProt Q13478 22-329)
T1 construct: extracellular domain; captured on Protein A sensor
T1 sequence (looked up): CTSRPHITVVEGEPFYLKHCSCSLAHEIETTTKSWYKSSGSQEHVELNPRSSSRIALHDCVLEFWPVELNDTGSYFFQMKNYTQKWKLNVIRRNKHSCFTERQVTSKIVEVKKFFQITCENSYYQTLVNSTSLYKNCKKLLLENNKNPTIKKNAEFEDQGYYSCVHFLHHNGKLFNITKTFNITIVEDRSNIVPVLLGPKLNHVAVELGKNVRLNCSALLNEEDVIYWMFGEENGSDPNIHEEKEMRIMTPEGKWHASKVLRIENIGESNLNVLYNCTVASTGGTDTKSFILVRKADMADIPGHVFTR

T2: recombinant hIL-18Rα extracellular domain (human, UniProt Q13478 22-329, biotin label (selection) or fluorescent probe (single-clone FACS), sites not given)
T2 construct: extracellular domain; also called hIL-18Rα ECD; hIL-18Rα-ECD
T2 sequence (looked up): T1 sequence (looked up)

B1: IL-18 variant polypeptide M1 (ligand)
chain: YFPKLKSKLSVIRNLNDQVLFIDQGNRPLFEDMTDSDCRDNAPRTIFIISMYKHSDRRGMAVTISVKCEKISTLSCENKIISFKEMNPPDVIKDTKSDIIFFQVSVPGHDNKMQFESSSYEGYFLACEKERDLFKLILKKEDELGDRSIMFTVQNED
B2: IL-18 variant polypeptide M5 (ligand)
chain: B1 chain with P3E, K6T, H54W, D56P, R57W, V104T, N155K
B3: IL-18 variant polypeptide M12 (ligand)
chain: B1 chain with H54G, D56G, R57A, V91T, V104R
B4: IL-18 variant polypeptide M22 (ligand)
chain: B1 chain with K6R, H54Y, D56R, R57G, V91K, V104S
B5: IL-18 variant polypeptide M11 (ligand)
chain: B1 chain with K6R, H54S, D56R, R57N, V91G, V104T
B6: IL-18 variant polypeptide M9 (ligand)
chain: B1 chain with K6R, H54W, D56R, R57A, V91S, V104S
B7: IL-18 variant polypeptide M4 (ligand)
chain: B1 chain with H54W, D56G, R57V, V104F
B8: IL-18 variant polypeptide M21 (ligand)
chain: B1 chain with K6R, H54S, D56S, R57T, V91G, V104S
B9: IL-18 variant polypeptide M14 (ligand)
chain: B1 chain with P3N, H54P, D56S, R57S, V91R, V104A
B10: IL-18 variant polypeptide M23 (ligand)
chain: B1 chain with K6R, H54Y, D56T, V91N, V104R
B11: IL-18 variant polypeptide M7 (ligand)
chain: B1 chain with K6R, D56T, R57A, V91A, V104R
B12: IL-18 variant polypeptide M18 (ligand)
chain: B1 chain with K6R, H54S, D56R, V91G, V104S
B13: IL-18 variant polypeptide M16 (ligand)
chain: B1 chain with K6R, H54S, D56R, R57N, V91G, V104S
B14: IL-18 variant polypeptide M10 (ligand)
chain: B1 chain with K6R, H54Q, D56L, R57W, V91S, V104R
B15: IL-18 variant polypeptide M3 (ligand)
chain: B1 chain with H54W, D56H, R57V, V91A, V104Y
B16: IL-18 variant polypeptide M13 (ligand)
chain: B1 chain with H54Q, D56I, R57W, V91N, V104R
B17: IL-18 variant polypeptide M17 (ligand)
chain: B1 chain with K6R, H54L, D56T, R57A, V91G, V104R
B18: IL-18 variant polypeptide M20 (ligand)
chain: B1 chain with K6R, H54S, D56R, R57S, V91G, V104S
B19: IL-18 variant polypeptide M15 (ligand)
chain: B1 chain with K6R, H54S, D56Y, R57T, V91G, V104R
B20: IL-18 variant polypeptide M2 (ligand)
chain: B1 chain with P3S, H54W, D56P, R57D, V91G, V104T
B21: IL-18 variant polypeptide M19 (ligand)
chain: B1 chain with D56E, R57Q, V91A, V104R
B22: SEQ ID NO 100 (ligand)
chain: B1 chain with P3S, K6P, H54Y, D56T, R57W, V91F, V104S
B23: SEQ ID NO 102 (ligand)
chain: B1 chain with K6R, H54F, D56N, R57F, V91A, V104S
B24: SEQ ID NO 97 (ligand)
chain: B1 chain with H54T, D56F, R57N, V104R
B25: SEQ ID NO 113 (ligand)
chain: B1 chain with K6R, H54I, D56I, R57S, V91N, V104R
B26: SEQ ID NO 95 (ligand)
chain: B1 chain with P3W, K6S, H54L, D56T, R57W, V91Y, V104R
B27: SEQ ID NO 118 (ligand)
chain: B1 chain with K6A, H54W, D56N, R57A, V91S, V104R
B28: SEQ ID NO 98 (ligand)
chain: B1 chain with K6T, H54Y, D56T, V91N, V104R
B29: SEQ ID NO 96 (ligand)
chain: B1 chain with K6H, H54R, D56T, R57L, V91G, V104R
B30: SEQ ID NO 115 (ligand)
chain: B1 chain with K6G, H54I, D56H, R57D, V91T, V104S
B31: SEQ ID NO 108 (ligand)
chain: B1 chain with K6G, H54Q, D56H, R57Y, V91N, V104R
B32: SEQ ID NO 109 (ligand)
chain: B1 chain with P3K, K6P, H54L, D56S, R57E, V91N, V104R
B33: SEQ ID NO 103 (ligand)
chain: B1 chain with P3S, K6P, H54W, D56P, V91I, V104S
B34: SEQ ID NO 112 (ligand)
chain: B1 chain with K6R, D56T, R57N, V91I, V104I
B35: SEQ ID NO 101 (ligand)
chain: B1 chain with H54L, D56R, R57T, V91F, V104S
B36: SEQ ID NO 110 (ligand)
chain: B1 chain with K6N, H54L, D56P, V91N, V104R
B37: SEQ ID NO 106 (ligand)
chain: B1 chain with K6S, H54A, D56S, R57L, V91S, V104R
B38: SEQ ID NO 111 (ligand)
chain: B1 chain with K6E, H54Y, D56S, R57K, V91G, V104R
B39: SEQ ID NO 107 (ligand)
chain: B1 chain with K6T, H54T, D56Y, R57E, V104R

biological target: T1, hIL-18Rα ECD-Fc fusion protein; assay: BLI (Octet RED96), hIL-18Rα ECD-Fc on Protein A sensor
Method: The affinities of IL-18 variant polypeptides for hIL-18Rα were assessed by Biolayer Interferometry (BLI) on Octet RED96 using Protein A sensor coated with hIL-18Rα ECD-Fc fusion protein, and WT hIL-18 was used as a control.

Binder	Kd	Response (nm)	koff	kon
B1	2030 nM	0.0186 nm	0.111 s⁻¹	54400 M⁻¹ s⁻¹
B2	38.8 nM	0.0468 nm	0.0149 s⁻¹	383000 M⁻¹ s⁻¹
B3	24.9 nM	0.186 nm	0.0107 s⁻¹	427000 M⁻¹ s⁻¹
B4	4080 nM	0.0592 nm	0.0398 s⁻¹	9740 M⁻¹ s⁻¹
B5	68.2 nM	0.08 nm	0.0189 s⁻¹	277000 M⁻¹ s⁻¹
B6	4.88 nM	< 0.02 nm	0.0108 s⁻¹	2.21e+06 M⁻¹ s⁻¹
B7	39.1 nM	0.0326 nm	0.017 s⁻¹	436000 M⁻¹ s⁻¹
B8	64.9 nM	0.0791 nm	0.0221 s⁻¹	340000 M⁻¹ s⁻¹
B9	23.6 nM	0.218 nm	0.00588 s⁻¹	250000 M⁻¹ s⁻¹
B10	368 nM	0.0522 nm	0.0302 s⁻¹	82300 M⁻¹ s⁻¹
B11	11.9 nM	0.0222 nm	0.0271 s⁻¹	2.27e+06 M⁻¹ s⁻¹
B12	33.1 nM	0.173 nm	0.0134 s⁻¹	404000 M⁻¹ s⁻¹
B13	42.6 nM	0.111 nm	0.0177 s⁻¹	415000 M⁻¹ s⁻¹
B14	48.6 nM	0.0788 nm	0.0235 s⁻¹	483000 M⁻¹ s⁻¹
B15	2140 nM	0.057 nm	0.0431 s⁻¹	20100 M⁻¹ s⁻¹
B16	11.6 nM	0.31 nm	0.0038 s⁻¹	327000 M⁻¹ s⁻¹
B17	67.7 nM	0.0784 nm	0.0231 s⁻¹	340000 M⁻¹ s⁻¹
B18	35.1 nM	0.136 nm	0.0167 s⁻¹	476000 M⁻¹ s⁻¹
B19	36.7 nM	0.122 nm	0.0183 s⁻¹	499000 M⁻¹ s⁻¹
B20	12200 nM	0.0184 nm	0.0499 s⁻¹	4090 M⁻¹ s⁻¹
B21	112 nM	0.025 nm	0.0554 s⁻¹	495000 M⁻¹ s⁻¹

biological target: T2, recombinant hIL-18Rα extracellular …; assay: single-clone FACS, yeast display, 10 nM labelled hIL-18Rα ECD
Method: Following the screens described in Example 2, single clone FACS analysis was performed to verify the binding of selected yeast cell surface-expressed IL-18 variant polypeptides from Round 4 and Round 5 to 10 nM hIL-18Rα-ECD. Briefly, each yeast clone at the same density was incubated with 10 nM IL-18Rα-ECD labeled by fluorescent probe, respectively, followed by washing step. Then the ratio of fluorescent positive IL-18Rα ECD binding yeasts in the population of each clone were analyzed.

Binder	% of fluorescence positive cells
B1	89.8%
B2	96%
B22	2.16%
B23	1.64%
B3	88.3%
B4	4.83%
B24	2.66%
B5	83.6%
B6	36.1%
B25	0.61%
B26	3.45%
B7	44.9%
B8	89.9%
B9	88.3%
B27	0.15%
B28	2.36%
B29	2.79%
B30	0.35%
B31	1.08%
B32	0.98%

Binder	% of fluorescence positive cells
B33	1.44%
B10	2.36%
B11	93.8%
B34	0.69%
B12	80.9%
B35	1.91%
B36	0.71%
B37	1.34%
B13	88.5%
B14	68.1%
B15	93.3%
B16	96.4%
B17	87.1%
B18	86.2%
B19	95%
B20	91.6%
B38	0.69%
B21	90%
B39	1.23%
